The test deals with T1, human UBA6 (full-length, amino acid residues 1-1052) (human, UniProt A0AVT1 1-1052).
T1 construct: UBA6, human, Uniprot entry A0AVT1, full-length, residues 1-1052; The cloning methods name only the N-terminal 3×FLAG tag; the BLI methods say that His-tagged ligands were captured on anti-Penta-His sensors; also called UBA6^WT
T1 sequence (looked up): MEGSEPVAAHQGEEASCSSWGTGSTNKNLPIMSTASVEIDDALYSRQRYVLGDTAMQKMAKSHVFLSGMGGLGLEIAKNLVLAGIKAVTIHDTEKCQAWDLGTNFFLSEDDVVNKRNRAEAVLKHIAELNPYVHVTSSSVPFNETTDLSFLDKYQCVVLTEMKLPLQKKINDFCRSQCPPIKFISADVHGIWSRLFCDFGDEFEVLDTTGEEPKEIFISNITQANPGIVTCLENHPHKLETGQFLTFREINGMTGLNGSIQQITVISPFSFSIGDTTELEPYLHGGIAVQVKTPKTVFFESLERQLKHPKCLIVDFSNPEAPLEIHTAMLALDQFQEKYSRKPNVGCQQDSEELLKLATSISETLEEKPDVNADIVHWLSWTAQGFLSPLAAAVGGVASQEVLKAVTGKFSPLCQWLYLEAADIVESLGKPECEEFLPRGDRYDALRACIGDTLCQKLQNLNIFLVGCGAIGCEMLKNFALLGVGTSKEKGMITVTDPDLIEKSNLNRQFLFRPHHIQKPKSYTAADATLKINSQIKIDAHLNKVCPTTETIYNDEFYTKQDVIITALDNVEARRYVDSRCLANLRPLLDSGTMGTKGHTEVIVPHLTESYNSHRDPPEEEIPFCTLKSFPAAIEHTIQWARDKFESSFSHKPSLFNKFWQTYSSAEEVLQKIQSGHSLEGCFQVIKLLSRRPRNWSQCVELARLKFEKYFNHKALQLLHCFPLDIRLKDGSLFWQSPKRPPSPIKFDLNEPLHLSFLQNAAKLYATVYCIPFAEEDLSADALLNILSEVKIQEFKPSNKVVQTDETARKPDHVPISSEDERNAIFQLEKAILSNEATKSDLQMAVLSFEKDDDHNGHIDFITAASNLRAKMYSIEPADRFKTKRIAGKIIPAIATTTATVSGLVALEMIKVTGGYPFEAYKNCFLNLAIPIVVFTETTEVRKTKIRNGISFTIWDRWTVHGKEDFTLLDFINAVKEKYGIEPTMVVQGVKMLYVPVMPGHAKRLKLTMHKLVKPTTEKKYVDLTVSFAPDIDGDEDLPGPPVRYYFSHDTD
Briefly: BLI; His-tagged E1 ligands on Anti-Penta-His (His1K) biosensors; analyte BIRC6^UBC or BIRC6^(UBCΔinsertion loop) at 40-3240 nM; 50 mM HEPES, pH 7.4, 150 mM NaCl, 0.05% Tween-20, 10 mM imidazole; 25 °C; steady-state 1:1 fit. The settings on record: both partners purified. A general note: Biolayer interferometry detects binding as a change in optical thickness at a sensor tip.

One may read the Kd as the constant that tells how readily two partners part at equilibrium.

B1: UBC domain of BIRC6 (residues 4520-4857) (domain or fragment)
chain: not shown
notes: BIRC6 UBC domain, human, Uniprot entry Q9NR09, residues 4520-4857; also called BIRC6^UBC; WT BIRC6^UBC; source: E. coli BL21 (DE3), purified (Ni-NTA, HRV 3C cleavage, SEC); not shown: His6, N-terminal, cleaved
For B1, binding was characterised by a dissociation constant (Kd) of 4.82 µM. That is a single-digit micromolar value.

These data come from PMC13623948, “Steric Gating Contributes to the Preferential Ubiquitin Charging of BIRC6 by UBA6 versus UBA1” (Nature Communications, 2026).
